Test: protease stability score; higher = more stable; yeast display proteolysis, trypsin and chymotrypsin;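 note: relative to predicted unfolded state with 0 unfolded-like and 1 meaning tenfold more protease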

First: SEEEEYLRRVAELILRLLITGDEDEHHNLADPNTLVLIDINGVHIRDHGWWALRRWWEELERRVPGMRVRPRNMTVQGEKVILHMETVIGDKRLRLDFYHLVIDGKITSVEIKVDES
Second: SEDEHSFKMAIDLWEEVSRTGDEKDLRELIDPHVRVEYGDKHHVGWDRFIKVFHEIRFHHIKVRDHRIIGDKLHMNIEVHGEYNGQRVTIETHVVMRKIDGRWFTETMQID
The protease stability score of the first is higher: 2.4 for the first, 1.22 for the second.

Going from “DKEEELIRELMEQFTHWLITGNWKKIVDMADPNVQILYNGQEFHGREELHKALQELLEKLGFKHIEIRRKHVVDGRVHLDGRSIINGRRFEVEYISVIINGVIKEIELRVE” to “DEEDEIAEKIMRIILRAFTTGDEETVEKLVDPHARLEFNGRETHGRESWFKLMHHLRIRRMRIHNERIHTQGDFSLSHVRIEFDGEINGKRVEDETRMEIRVIVVNGVVKSVSLSTE”, the protease stability score falls from 1.95 to 1.35.

First: SERDRIAKELKDILRSSRETGDERMMEELADPNVRFEINGVTIIGREEFYRWMSEWRLELEHSNDHDEREFDGQVNVDGTLVMRFTVNGQERREKVRITIHFLKVDGRWILHRIIIH
Second: SDEEEYTRKAIERWIKDFITGNEDLIRKFADPNTRMEWNGKEHHGMELMVKVLKREIHEIRLQKFDVHHVEIYNGRAIVHLKLHGTIDGREETLDVIIFSEKINGQWRVEQLSIR
The protease stability score of the first is higher: 2.03 for the first, 1.39 for the second.

Going from “DEDREIMERFIHILAEVWRTGDEHSLERLFDPNYKTLYDGRDVHGRETHIEILRTLGLERIEVRIKRFRVQGDKLHVNVELDVNGRTTEVEIRWRKIDGRWINHDMEIE” to “HEDEESMEHSIRRLIQAIETGDFHELTELADPHVKLTIGDKEYIGREQWEKTLRDLGIDHFDVKRSKLIGDYARVDGKVNVNGQFRDTTVIMKKVDGKWLIRSWHVH”, the protease stability score rises from 1.39 to 1.91.

Going from “DDLEKVSHWFNRMWTEILKTGDEKLLKDLLDPHTKLIFENRHEHGREHMISFFKKLLDEMRVHDVKIRDIEVQGDKVISDTSLDLEINGRSFEVETRLLAVKVNGRWYVHEIELR” to “DELEKAMRTAVELFRHLIETGDEEFMQRLADPHTQLIVGDKTFHGRDHVVHEWEKFKNVKYRFEDVEFQGDKIILHSTLEFDGRRLETHIQLHKINGRWLLKRVEIK”, the protease stability score falls from 2.36 to 1.39.

First: TEHDEDLDRWYDVLKHVLHTGDEEAKAKMVDPHVREDVNGQELHGRDDVRRLDRELGVNHFVLRVERLNIQGNKITMRGTLELTVGDKTERRHVIIHMIKIDGKWFTHHEQIR
Second: DEHQERIEEVLRDILEVLETGDWRKWHRLMDPHVLLIIFINGRKLSFHGMETVISHLQHEWRRVKGLQFELKHVELQGDYIHIDGHVRFNGQQTRIEIRIDIVDGKIHQLEFKFD
The protease stability score of the first is lower: 1.04 for the first, 1.53 for the second.

Compared with “NEEKRDSDILRRHLLEVLDTGDWDRMHELADPNAKTHFNGRDHHGREDMTHLFRELGVKHQELRSVHLQGNYVEITIHVSVDGRHVHLRFFMVKIDGKWRIRHMEIEWL”, “DHRESLRDDMEELLLEVIHTGDWHNYLKLLDPNARLVVGDKEYMGRERVLHWFKEKLDKIPGAKIELEDKREIGNKVELDFDMHVGDKSLRLHIDLRKVNGRWLIEHIEIR” is higher in protease stability score: 1.14 for the first, 1.47 for the second.

Compared with “TEDEKLVEIALELWLRSLRTGDEDMFRELFDPNTRIFVNGVDHHGRHALEIVKERYDHVRDFHIELRSVHYVNGVLHVDGHFRMDIKYGDKRRIIENRTIMIIEKINGRWIFKHERLE”, “DETFEDAHKLFKKFWEDMRTGDESEIEKLLDPNDKVHQGEKQTHGREEASRTHQEDIRRVDVFERVHIDHIETQGDFAIIDSTWIIHFDGKRFTRKVIIFLVKINGQWKFHSITMR” is lower in protease stability score: 1.24 for the first, 0.71 for the second.

First: DEEEELVRLATEHSLELMRTGDWSHLHKLMDPHALLSVNGREVHGRENAVRLIITILEDLGVKHFHLEHVEVIDGRVNIDGRLHQGDKKLNNEIWLVKINGRWRLKSIHIELK
Second: DREENEIREFIEKLVDAHLTGNFELMDELADPNVRIEIGDKRYHGREEYLRLMHELRIHHVEIDHIEWYNGQVHMHGTVDGVVDGRRHRIHTEMTVEKVNGRWILTEERQL
The protease stability score of the first is lower: 1.17 for the first, 1.69 for the second.

Compared with “DDEEEVAERAARIVHHLYLTGNPEELLKYFDPDVRWIFNGKTSIGRENVVEMFDDVHRMFGIDVRTSDINSYDIVDGRIEVDSRLHLHINGRKINHHFRIESIKINGRWWLKRIDID”, “DEDKKVAELVMRLWEHTQRTGDPDMMSKLADPNVRVDVNGREIHGRERLFEHLEHMRINHFRLRDREIHVQGDYVKIRIEGELDGDINGREDRHRIELIIVVEKINGRWFMTEVIVIVK” is higher in protease stability score: 0.933 for the first, 1.37 for the second.

Compared with “SEEEEEFRERLRILYEKLLTGDWRFFLKLADPNVRSIIDGRTWIGRDEFETAMRKFDEDLGFDHTHIRHYHIQGEKVQIHFEVRQGDKRITVEINLVIVNGRYKFVELRLSIH”, “HEDERAFEHFIELLMHTLRTGDEELWKHLADPNYLLDVGDKHFIGRERVVEWIRHIRIKDVRVEHYKIQGDKAEIHTRVDGNIDGKELNLHSRFKMHKVDGRWLLEEVEFR” is higher in protease stability score: 1.4 for the first, 2.22 for the second.

Going from “DDTEDLATELSKIIRTVLRTGDWHTLRELADPNMRLNVNGQERHGMDLVREIHLNAGWQRVTVIIRHLHIDENEMHLETETRYDGQKHRVHVHVKKINGRWVIDFIIIH” to “DEKTEQSREIIELLLKALQTGDEDTLTELLDPHVKIHIGDKDYHGREEVSRLLQEFWDRFKNARIEIHDYRDINGRVHVDLRHVVGDKTYTSKWNILKVNGRWYIEQIHVH”, the protease stability score rises from 1.09 to 2.07.

Compared with “DEDEDIVRRHLHKLSKAWRTGDEETEKKLADPHARIQIGDKTDHGMEKMTKDWHEFLREMRVEIRIEDTRVQGDKVVNHIHIHSDIDGKEIILHSRIIVRKIDGRWHIESFVLI”, “DDHEKDLTDMARRNYHWWKTGDFDRVIDLLDPTTRLIVGDKKFHGWDEFSHALELFRKQLRPNDSKLKREEVYGDKMVIHSHLHGTVDGKEVHHDVIFTFVIIDGRIHLIIIEPR” is higher in protease stability score: 0.475 for the first, 0.516 for the second.

First: DQDEEIMRRLLKTILESWVTGDEDELRRRADPDARSDINGRKHHGRDRVVKRMHDWLRELGIDHLHIEHERIIGEKAHFDTRVHVNGKTFEMFLHFEIIDGRVRSMHVEIR
Second: NEEKETADTFLRHLVHRLHTGDEDMLMRLADPHVLIIQGDKTYHGWHWFERNFLEQINRFKGLTVKVERKDVHLFENRLILEGTLHLEFNGRDVHIEQEIIVHKINGRWILTHYMLI
The protease stability score of the first is lower: 0.654 for the first, 0.813 for the second.

First: DEEEKDVRFFIKLLVHSLRTGDERALKHLLDPNVRMDINGREKIGWHQLRELLEEWRMHDIHITSVEVQGEKLFSHGLLEGVIGDKRVELEVEHTARKIDGRWIYTEVKFR
Second: DELTRDFEEATELLIRILLTGDEDIFREMADPNVRLHYGDKTFIGREEFVKWLHQWRIEDIKIDHVDLQGDYAIVHGRIRTVIGDKEHKVDTKWIIRKYNGKWDIREVHIR
The protease stability score of the first is lower: 1.32 for the first, 2.07 for the second.

Compared with “DEEERDARRVYEHLIENWETGNFDRVLELFDPHVKLIFNGQEFIGRDDVSKEINRIDHEHIDDFRLHSIRIVDGRIEIDGRIRFTLHVNGKTVHFDRKLILIMRKVDGRWIITSLHIR”, “SEEEEEMKLAKRLLENISETGDERELEELLDPNVRIVIGDKHEHGRESVEHWFRRIDHIKHFEIERVTVFDGRVEMHGRMVGTINGKHKNTRITLIAVKINGRWVLQHRILE” is lower in protease stability score: 2.09 for the first, 0.245 for the second.

Compared with “DEEDKHLIDMFRILMRTIETGNEEETRKLMDPHTIIEIGDKRSHGWESWKKFIEDLERRFDHVRIEIEDVKVQGDKAIVRTRLKLIVGDKHFEHDTRIFVVMVNGRIHTFRVEID”, “EHEEEHTRHFMHFFIEMVETGDETALHKLLDPNAKYIQGDKHLVGRELMVEWMEELVRRFKNIRVHITEIERQGDKARVDEKWDINGKKIKTELIITKIDGQWRIHEIRVK” is lower in protease stability score: 1.48 for the first, 1.23 for the second.

Going from “DEDLEESHYAIEYLIRLFETGDWDTVDRFFDPRTRLRVNGKNHHGREEVTEFVEDILKRYDHKQFTFTHVEFQGEKIILHGKLHLDINGVHFEHDFILIIKKIDGRWYVDEIHIS” to “NEEEELLHRLAKRFIELFLTGDWEVMEKLFDPHVKIDVNGRESHGREQVWHLLMHLLHELRIHHILIRSFDVFDGRAHSSVEVNGEFNGKRDLTEAEVVIVSVDGKMKSVSIKLR”, the protease stability score falls from 1.39 to 1.23.

First: SEMHEATEHLLKLWVHIFETGNEKWFNKLADPDYRSRILYGDKELKSHGRENVVEVLYRWLKHFGFDHVRLEDEHIQGNKVHLHFRVQVNGRHHELDLNIDMVNGKIRHVEVILH
Second: DEDKEESEKFFRDMHRAAETGDWREHLRLMDPHVRLVVGEYQHHGRETFEEILTEWFERVDHQELVIRHVRVYDGVADLDGEIIYHYGDKIIFVRYTIHVRKVDGRWRIKHIRIE
The protease stability score of the first is higher: 1.5 for the first, 0.476 for the second.

Going from “DHHKESSEYLVRDYYEYIETGDFKRMEELADPNMKVVVGDKTHHGRESLSVVYLRLGIKHWDIKRIHNIGNKIRIHSTIFVDGVDMHEHSHAEKIDGRWLLRELSFE” to “SEDEDLSRHLSELWLDALRTGDEKSTHKMADPHTRVEVGDKTDHGMEVWNRIFERFKGARLEITEWRTIGEKVHYHMHIEYGDKHVDVEIEIIQINGQVKEFIIRVRIK”, the protease stability score falls from 0.319 to 0.249.

First: TEEDEMVHRQTEILEESIVTGDWKTLRNFVDPNMRLEIGDKTVHGWHAMSHILRRIDHINSVELHKVEVYGEKVHVDTIVDGIVDGRRTHLRTHIIALKFNGRWILTSNKIE
Second: SEDDEHMKEIWRILQHSLETGDFHILSRMADPNAKFDIGDKEIVGMHLWIEELLRYKNRQIRVHYHEMRVYDGKIDSRERYDVKYGDKELTTELRVHARKIDGRWVLEDVRVH
The protease stability score of the first is higher: 1.03 for the first, 0.668 for the second.

First: NELDKHTKEFAERWIKSVETGDWRSEEHLLDPHVKLETKVNGRDVRVVGREEVHRYLRELHEELGVDKVEFITRRIRLQGDKIDIDGELRINGRTHEAHIHLDIINGRIHSVRLQWT
Second: DKREEELHWAVELLIDIFRTGDERLLIELIDPHARSEVGDKTLHGRQHAEVEHRDWGLDRVETHIHDYKVQGNKLHLDMSTVVNGKDIKISFIAEKYNGRWHLKRIIIR
The protease stability score of the first is higher: 1.44 for the first, 1.27 for the second.

Compared with “SEEEESAKIAIKVMLHSLHTGDEHTMSRLMDPNAREIINGRHNHGREVILEFLRRLGFTKVEIKDFRLTHMSVQGEFVFVHGTTNGEFNGVDTNVDLEIVVLKVDGRWTIQSVFYR”, “DKHEEALEIAIRLLELVWKTGDFEDFVRLLDPHTRFHYGDKDFIGMELWLRLHEHLGITQIEIRSTHHHRIHAQGDKVILDIEIEGIIGDKETRHRIKLVVVKVDGRWKIKEVHIR” is lower in protease stability score: 1.67 for the first, 1.09 for the second.

Compared with “TEEDEHLYEYLESLFHHQRTGDEDKYERLLDPHARLDINGVDVIGMERVVHQWHEHWRRYKNMRIHFRHYEIKVFNGRAHLRIEGHMEYGDKKSEVELLFIAIKINGRWVVKQVHITVH”, “DHIEEDIEEAERIMKEVNHTGDWETLERNFDPNVRLDIDGRTFHGMETYTKWFREIRIEDSRVKSIELQGDKIRYDTILHGIINGKRDTVKTHLIAVKVNGRWFIKVYSLH” is lower in protease stability score: 1.82 for the first, 1.05 for the second.

First: DEDEELAKKAVEEFFTAWETGNEERLEELMDPNVRSHINGVDLHGMERTSEYIRRLGHTKVETYLRRVRVFENRVEVDGDIIVDGRKHKFHLDMRKINGRWFIHRVSVK
Second: SEDEEDMTHAIEEIEHFWMTGDWKKMHDLADPHVKTIINGREQHGRRHMIEAIKDSRRRLGVNYIHSVSNKHFDLQGNKVHSDIRIDVDVNGKHIDLELEVDIVKVDGKWQLSHLKIV
The protease stability score of the first is higher: 2.42 for the first, 0.931 for the second.
